This note sets out measurements from the DeepSol protein solubility set.

A short description of this data set: soluble on expression in E. coli; label from the status in PepcDB or PDB records.
For “SSAKSAISKEIFAPLDERMLGAVQVKRRTKKKIPFLATGGQGEYLTYICLSVTNKKPTQASITKVKQFEGSTSFVRRSQWMLEQLRQVNGIDPNGDSAEFDLLFENAFDQWVASTASEKCTFFQILHHTCQRYLTDRKPEFINCQSKIMGGNSILHSAADSVTSAVQKASQALNERGERLGRAEEKTEDLKNSAQQFAETAHKLAMKHKC”, the “soluble on expression in E. coli” value is “soluble”. For “MRGNKGGERSRTFTVQARIVGRWQHPCSPRPEGRVHPQLPPHAAATRLACVRLYKHCGICGTPTHAVSHRNDTHDGDSAPTRCPRAEMPLSKKSSSLRQAIPCSVLFAADPLQVPSNACVGNRLSTVRRQHQFSASRHTKHAPSVAEDGNGIPRPPPVSVGAGVVDNANEPFAEYARLSTSLASRAHVEPFSSAPMSSFASCPYVAASSHGSTTMSKALRRLPTTVTALPGMAPPPPTISAAVPRNGHRTAGRTSAPLRVHLVHRTRSPPGLAHSPPAYSSTVTTSMPHEIPPTSALVLPYCTDAQLRNLFATLFVRTGDATWSVHQHILPFLTVRQHCNLSAAPSQVTAFFGLTSHSDEDVHEKGATGAAGHQGEQAFFGGPWATKEMNRVASQLCYSFVYVGILGCGEEMCWDTLPMPLGGIPALARRSPVRNAYNTGSTSASQSPVTRSSSSSAHPATPEKQCLCPTPHRSLRNSPCVSSSALGVVALMEGLKQHQPSRMVEDGGADDDEGGPKSTVLYHTDQLESSTLDVVTTSTLTSVEFRGVVEAPPLVQEVAFVRGATRSYKLSWETARGSLHT” the value was “soluble”; for “MAHHHHHHMNPSLSDSKFEKAMSKLQLLEDSRTILHRMLQHAHFSFSNAQRQMDRTGLLLAWEAVPTAAGAVKPQYCIVREMKDGGNGGDAGVGAAAISDDNVDCAVWKLVNCGDSAGEDPAKWFAVAPSEALRECQQHFRGVVNACVKVIQAQEEAITAAATVPVT”, “not soluble”. As to “MGSDKIHHHHHHMGVKFTLMGTTAGLGVPAFHCNCIACREARADPFWARTRSGAVLETGKENILIDASPDLSKQLLRERIQSVDYLFVTHWHYDHFGGIGDLEYYVKLERKRPVALFLPPSAVDDFAKAYPFLEEVFVIEPWEFGKSYAFEGIELTVLPARHSIETGGILLAGAKRAAYFTDTSGLPAPTARQLQGVDTLICDATFNGANWFPHSHMNWQEAIALGESIRAQHTVLTHLAMHYSTPITAAQLQEKLKDYAQVSLAYDGMVLTI”, the “soluble on expression in E. coli” value is listed as “not soluble”.

As for “MSSSPSLPSSASVPAAFDRAPVSGLPDNAIEIDALRKVYGGGKVALESLSLAIPRGSFFGLLGPNGAGKSTLINIMAGLVRKTSGRVRIWGNDIDTDERAARCAIGIVPQELSFDPFFTPREMLDVQAGLYGVPKAERRTLEILRAVGLEDKADAYSRTLSGGMRRRLLVAKAMVHSPPILVLDEPTAGVDIELRQQLWAYVRDLNARGTTVLLTTHYLEEAEELCDRIAIIDHGKVVVSEPTTTLLGRLDNKSLTLRLAQPLDAPPPALAALGAELRDPYHLVITYHPSSLPMARILDAARAGGLTIADLTTREADLEDVFLRLTSSHHRAQEIGLEHHHHHH”, the “soluble on expression in E. coli” value was “soluble”. “MTTTTTVRQCRVTRIGSTELPPRVENAIQFLDDQCYEKLGGTVVMKWFGNRVPPEDHRQLSSFCHVVNLTKYDDDPKSRYHKDDIECACGTSSNLFFLKKFNEAVEKYPCDDDETITKAPTTEPSDDLWCWQLRSRSFASSPPPPRMKNAIQLLDDKCYAKLGGTTVMKWFGNVVTPEGKVCFVINLTDSKMKLYKKEIVCACGRQSYVFFLEGLILMREKYSCNDKTTTKSTRTTPSTTTAKQCYVRRTGSSVSPPRETDAIPMLDDQCYEKMGGTSVMDRFGNREPPKSVYEYSEFCLLVDVTLNGPAMETYQSDIECVCGISSLEFFLEKFEEAIKKYPCDNDGATEAATTKPTTTTVTTTTVPPKTDPPRTEPPKTEPPTTEPPKIEPPRTEPPKTEPPPTEPPKTEPPKTTPPKTEPPTTEPPNIPYCWQQQSRLFAPSPPPPRVNNTMPLIEDKCYAKLGDTLVMAWFGNRAPPKNFTEVLDFCTVAALTYNNESAVFSVFKKDIQCNCDKLSFSRFLKKLSEAMEKYQCNNVWTRTEAPETVTTRTEPPRTEPPRTIPPRTEAPRTEPPRTEPPKTEAPRTVRPKTEAPMTVPPRTEPPMTEAPRTEVPMTEPPKTEPPRTAPPRTEVSMTLPPETVPPNTEAPRTEVPMTVPPRTEPPKTEAPRTVPPKTEAPMTEVPMTGPSRTEVPMTEPPKTEQPRTAPPRTEVSMTLPPETVPPKTEAPRTEVPMTGPSRTEVPMTVTPETGLSSTVTSKTEPPKTTTEKRITPRTEVPKTVPPRTGPPMTVPPGTEAPTTEAPMTITPRTEQLRTEQLRTDQSKTVTPKTKITVWPTDYRGPI”: the “soluble on expression in E. coli” value is given as “not soluble”. Regarding “MAHHHHHHMPKYYCEYCDIYLTHSSPVGRRQHIHGRKHISAKIEYFQNLLREEGITPQNFLGFLNNRNINNPLGNPMMNYMNPNMYMKYNPMKSYHSYSMRSSHPYRLNIHNNKYSRAGYVPPSHHKYSVNPMHNNYHQAHNNYSYPNSINPSNQINYSNNYGSNNFNNSNEFNKNMNEKDNINNNDIHDNKVKTDENDPINNDNLNNTRNFSYEENHYSTDHKKPSFLNPENSKEHIESDIS”, the “soluble on expression in E. coli” value was “not soluble”. On to “MPLTKRAVSPVNLSRGTIPSTIHRDELQCTANGTIANLVRQLSSLSKHAENIFGEIYHDAMIINHKSNTLQQRIDRLHKKVEDLDSNSDQATLNEANMRKAFKSSMLVDQHILDRSTLPTALTEIYAKCDPPPDLDALNPYRDSEIPALSLYTNPSFFFDLWKKETLKEVAERPRRVKSPNDGSKSPKKRRKQPGQGPLGTTAYNDMQHRNRQISGSRINQQNEVFSFPEEYQAPQALGLQLNFKNQHPSNMVAPIGMTMHHHPQQNVHPSQQRGGAPAAARGSPNVKRPTEAPPPVNLDHLPPPDMSILSIDDDDDDLPPPPPPLLMNTSIVHQLPAEAPSTIQFVEPSAAPPTNIPPPPPPPPPMVISSAAASFAAPAPKPSADGEAAGTNSPVAPKQPDARSDLLAQIQSGIKLKKVQRAEAEAAENAALEANNVAAILKRRMDQVMGNDDSSSEEGADDDEWDD”, for which the “soluble on expression in E. coli” value is listed as “not soluble”. Take “MYRLQIEKIRGFRDFYPEDMDVEKFIFKTAEEAAEAFGFRRIDFPSLEYLDLYRIKSGEELLQQTYSFVDKGGREVTLIPEATPSTVRMVTSRKDLQRPLRWYSFPKVWRYEEPQAGRYREHYQFNADIFGSDSPEADAEVIALASSILDRLGLQDIYEIRINSRKIMEEIIGGMTSSDPFSVFSIIDRYHKISREEFVDQLRSAGIGEDGVSMIADLCSGTRGIDEMARITGKSSEEIARMAAVEDLLASYGVKNVRYDFSIVRGLSYYTGIVFEAYDRSGQFRAILGGGRYDNLASLMSGESVPAVGFGMGDAVISLLLKRENVQIPREKKSVYICRVGKINSSIMNEYSRKLRERGMNVTVEIMERGLSAQLKYASAIGADFAVIFGERDLERGVVTIRNMYTGSQENVGLDSVVEHLISQATLEHHHHHH”: the “soluble on expression in E. coli” value is “soluble”. On to “MGSDKIHHHHHHLGRRGTADDEILLTYCPTLFIVGAEGRRFNNEAITELRTSMISPSGLVVVGHSNDMILVPTSMLLRLGISQTVVFRMVLEKILDFLNLEPVRQQEFADLVPIELNNVFDLDSALLKSDKALSGLAFASSTHSASSSAAPSPVGASGRRATVTGAGSEDIAKRRKESIILSQQIAAPSISGPPPPAPSPRTEDRFLAFQNLVASTITTGDDMPRRASMGASPRVIERGDFRDHRPPPPPPLPILQNPVATPMSQQPPLPSPAPPPPRGPVDPASISLI”, for which the “soluble on expression in E. coli” value is listed as “not soluble”. With “LADSSDVTEVENYMKANYDVPNNVYFGKAEGKNVIYVSLESLQSFIIDYKIDGKEVTPFLNKLAHDNETFYFDNFFHQTGQGKTSDAEFMMENSLYPLAQGSVFVNKAQNTLQSVPAILKSKNYTSATFHGNTQTFWNRNEMYKAEGIDKFFDSAYYDMNEENTKNYGMKDKPFFKESMPLLESLPQPFYTKFITLSNHFPFGMDEGDTDFPAGDFGDSVVDNYFQSAHYLDQSIEQFFNDLKKDGLYDKSIIVMYGDHYGISENHNKAMAKVLGKDEITDYDNAQLQRVPLFIHAAGVKGEKVHKYAGDVDVAPTILHLLGVDTKDYLMSGSDILSKEHREVIPFRNGDFISPKYTKISGKYYDTKTGKELDESEVDKSEDSLVKKELEMSDKIINGDLLRFYEPKGFKKVNPSDYDYTKHDEDSSETSKDNEDK”, the “soluble on expression in E. coli” value is “soluble”. Regarding “MGSDKIHHHHHHMTTILQLSDLHIGPHNDEKDQKTYDLIHHMMTHYQPDITVLTGDQIWSEGVIDSGRVYKKLMEYLNRYDTQIATTFGNHDTEGHLKRSDLRAIEDQYSTNYVQKNHSLIVDDKEAYTIEVVNNDTVTHVLYVIDGGDYNPFGIGDYDFIRPEHVNWLRETHQAYQTQFQHNFQHNLLFTHIPLQEYREVENIGEYHGIFNEPIACSKINSGLFSQMLLNGDIEGMFCGHDHDNDFTINLYGIRLSFGRIGGYNTYGDLQRGARLIELQPDAIYKSKVLEFDDRF”, the “soluble on expression in E. coli” value is reported as “not soluble”. In the case of “MGSDKIHHHHHHMINETRTTLDQSEVDHFSRIAAEWWNPHGKFRPLHQFNPTRLAYIREKICLELHRDPVSLKPFENLKILDIGCGGGLLCEPMARLGAMVVGADASQTNIEVAKIHAAQNGLSIDYRTTTAEALATEGEQFDIILNMEVVEHVADVNLFIEATAKMLKPQGLMFISTLNRTWKAWGLAIIGAEYILRWLPKGTHNYKKFLKPRELKNLLLQNALTVVDEIGVTYNPLNDSWNRSKDMNVNYLLLAKKS”, the “soluble on expression in E. coli” value was “not soluble”. Consider “MNMKATALTATTVAIASLLPSMGETNVQKANAEQLSNIKTGYVKVDQVALHTEDNVKSTSIDTIRFNTKVNIIETTNGWYKVSVHNKVGYVQKDAILLKNKLQSNDQYIVNANALNVRSEPNLESSILDVLPNGKFITVQEDQGEWYKISHNGQTGYVQKAFISNGSQPLVKGITVQNNTKYTVATPNLNVRSTASTSSALLGSLQNGTQVQVVETVGTWYKIRFGTGYGYVAKHYVVQNQPQAKTDQPSSIPAAFKFPAQGRISSTFDIRWEQMHYGIDIAAPGNVSIQAAAAGKVVKSYYSASYGNVVFIAHQINGKLYTTVYAHMKDRTVQAGDQVQTGQLIGHMGNTGHSYGQHLHCELHNGEWNFEKTDAVNPLPYLVRLEHHHHHH”, for which the “soluble on expression in E. coli” value is on record as “soluble”.

As to “MGSDKIHHHHHHMSIPLAFIICTEPGRLESQSLMLASSIRKFCGNLKDTPIYSFHPRVGEPISHQTQEAFAALQVIHQQIPINQEFHEYYLANKPLVCAYAEQNIDAEILVFLDSDKCLFAEPTEFLLPENCNVRVRPEYGQGIGSTGSQDPQEWYWQRLYQVLGVKREIFVNTPIGNKRIRAYWNSGLVAVRRSAGIFTAWKENFTKVMHLDITPPQGIYFVEQSVLSVTLCALVDNIEHFSLNYSYPLPLHNRLSPELRLQDWDDITSIHYFNLFFYNDWNTQIKKLKKFNITSDKYKWLSQEVVRLNMSRTSVLHRYMLAIRRIEQKLQKFNIKINLSSLIEKTAKF”, the “soluble on expression in E. coli” value is on record as “not soluble”. In the case of “MGSDKIHHHHHHMDLRSDALQILKDTSRTFYIPISILPSGLQEAVASAYLCMRAIDEIEDHPTLDNPTKAKLLRGISLTLQAGVDGFPVDAFAAGFSGYENTLAEVTMRIREWSLLAPETIAPRIWDATAAMSDRMAYWAENNWKIYTESDLDRYTFGVAGAVGLLLSDLWTWYDGTQTNRTLAIGFGRGLQAVNILRNHVEDLGRGVSFFPDGWDANNMQEYALRNLALADAYTQALPDGPALNFCQIPLTLAHGTIDAIANGKEKLSRNDVMALLEHLITFNLKAG”, the “soluble on expression in E. coli” value is on record as “not soluble”. On to “MAELRQVQVDIQQPGGIRELVQREAGDQVRGQDSFPGPDIRRVYQEVRYERRGKLICLIMAGGLGSRMNRPEKALIEVHGEALVDRTIRCMNGICSDIYALIDPSMERLQGKLRSVNVKVLAKRRGGYIEDLNHAMHSIGKFPILVIPGDIFIFNCSAFLDAVRRGMLAEANVVSFTDAGQYTGISIFNAQSGSYQDIDLNGSVANINTPEDLRAVIERLRTSEKLDGSAGHADG”, for which the “soluble on expression in E. coli” value is given as “not soluble”.
